Reference: patent US20150024957, “Methods and Devices for Detection and Measurement of Analytes” (THE UNIVERSITY OF TOLEDO, published 2015)

Biological target: Bovine serum albumin (BSA) (Bos taurus, UniProt P02769 P02769:25-607)
Experiment: SPR; 400 nM BSA; minimal effect on response of aptamer sensor
Details: tags: Sigma Aldrich
Experimental: Non-coated (i.e., no gold) SensiQ base sensors were custom modified with the developed gold based SPR sensing surfaces. Specifically, freshly prepared aptamer-immobilized gold substrates were coupled to the stripped sensors with index matching optical oil. This was followed by then loading of 100 μL 1 M ethanolamine (EA) at a flow rate of 20 μL/min to block the non-occupied MPA sites activated by the EDC/NHS, followed by an injection of 100 μL of 100 mM phosphoric acid (PPA) at 50 μL/min to remove the non-specific binding. The running buffer was 0.1 M pH 7.2 PBS. The sensor was first normalized with the buffer for 10 min, then the thrombin sample (25 μL) at concentrations of 5 nM, 25 nM, 50 nM, 250 nM 500 nM, 1000 nM, 2000 nM were loaded at 5 μL/min. Samples with BSA were all prepared with 400 nM BSA. All data was recorded at 290 s, 300 s, and 310 s after the sample injection and averaged. Sensor regeneration was performed by the injection of 100 μL PPA at 50 μL/min followed by washing with the running buffer.
Adding BSA to the sample had minimal effect on the SPR response for the aptamer modified sensors, indicating a good selectivity of the sensor toward thrombin. This is in contrast to the bare Au sensor, which experienced a significant change between the thrombin samples with, and without, BSA. […]

Chain of Bovine serum albumin (BSA) (P02769 25-607, one chain of several): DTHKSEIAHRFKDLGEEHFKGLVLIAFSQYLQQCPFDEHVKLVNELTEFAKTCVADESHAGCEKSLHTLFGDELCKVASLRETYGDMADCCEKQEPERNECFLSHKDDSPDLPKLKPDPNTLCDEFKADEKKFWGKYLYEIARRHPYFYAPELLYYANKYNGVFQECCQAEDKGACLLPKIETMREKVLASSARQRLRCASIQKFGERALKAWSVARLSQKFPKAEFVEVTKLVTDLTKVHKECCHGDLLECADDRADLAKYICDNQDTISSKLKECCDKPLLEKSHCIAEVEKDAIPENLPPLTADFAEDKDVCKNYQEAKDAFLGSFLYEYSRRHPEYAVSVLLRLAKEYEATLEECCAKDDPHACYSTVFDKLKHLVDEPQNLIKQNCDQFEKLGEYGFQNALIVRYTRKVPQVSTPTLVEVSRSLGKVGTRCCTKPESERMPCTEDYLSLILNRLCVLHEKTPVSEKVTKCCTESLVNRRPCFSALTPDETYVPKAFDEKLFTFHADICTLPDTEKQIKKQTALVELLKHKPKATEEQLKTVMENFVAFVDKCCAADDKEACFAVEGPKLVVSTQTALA

Binder	binding result
CTATCAGTCCGTGGTAGGGCAGGTTGGGGTGACT (ssDNA, 5'-NH2-(CH2)6) [APT2 (34-mer thrombin aptamer)]	no binding
GGTTGGTGTGGTTGG (ssDNA, 5'-NH2-(CH2)6) [APT1 (15-mer thrombin aptamer)]	no binding
